From patent US20090217392A1

How the values were obtained:
[1] = molecular target: human αvβ3 integrin on cells (human) (UniProt P06756); assay: 125-I antibody saturation binding on M21 cells
[2] = molecular target: human αvβ3 integrin on cells (human) (UniProt P06756); assay: 125-I antibody saturation binding on A375S2 cells
[3] = molecular target: human αVβ3 integrin, purified (human) (UniProt P06756); assay: saturation ELISA on αvβ3-coated plate, n = 6
human αVβ3 integrin, purified (human), sequence (P06756 31-1048, form in doubt, chain 1 of 2): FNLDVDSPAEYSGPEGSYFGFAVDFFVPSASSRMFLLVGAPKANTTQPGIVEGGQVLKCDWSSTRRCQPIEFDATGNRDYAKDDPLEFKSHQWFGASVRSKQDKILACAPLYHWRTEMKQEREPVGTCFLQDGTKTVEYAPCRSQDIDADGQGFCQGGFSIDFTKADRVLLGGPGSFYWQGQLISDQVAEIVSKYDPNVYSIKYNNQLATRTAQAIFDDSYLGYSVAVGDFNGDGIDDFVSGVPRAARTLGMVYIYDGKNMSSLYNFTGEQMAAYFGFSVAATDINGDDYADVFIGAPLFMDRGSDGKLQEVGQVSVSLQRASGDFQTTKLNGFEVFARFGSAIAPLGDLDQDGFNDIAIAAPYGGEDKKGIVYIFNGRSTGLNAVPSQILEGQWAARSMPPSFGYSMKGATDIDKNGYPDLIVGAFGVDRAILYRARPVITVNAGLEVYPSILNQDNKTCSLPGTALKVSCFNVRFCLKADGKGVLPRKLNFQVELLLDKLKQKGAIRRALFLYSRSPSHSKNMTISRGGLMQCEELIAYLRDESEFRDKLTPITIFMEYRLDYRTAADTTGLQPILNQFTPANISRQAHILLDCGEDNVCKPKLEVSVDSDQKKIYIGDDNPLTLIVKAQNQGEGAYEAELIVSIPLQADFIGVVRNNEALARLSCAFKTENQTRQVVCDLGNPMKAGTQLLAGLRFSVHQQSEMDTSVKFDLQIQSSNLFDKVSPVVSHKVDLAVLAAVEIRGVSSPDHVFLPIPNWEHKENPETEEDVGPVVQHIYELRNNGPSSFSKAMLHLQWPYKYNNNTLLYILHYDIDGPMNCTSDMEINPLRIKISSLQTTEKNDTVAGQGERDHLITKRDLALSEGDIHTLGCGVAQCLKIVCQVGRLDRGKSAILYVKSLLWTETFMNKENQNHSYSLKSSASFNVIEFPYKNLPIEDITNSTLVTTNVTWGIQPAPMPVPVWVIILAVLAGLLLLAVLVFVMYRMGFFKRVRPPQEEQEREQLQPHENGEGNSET
human αVβ3 integrin, purified (human), sequence (P05106 27-788, form in doubt, chain 2 of 2, further chain): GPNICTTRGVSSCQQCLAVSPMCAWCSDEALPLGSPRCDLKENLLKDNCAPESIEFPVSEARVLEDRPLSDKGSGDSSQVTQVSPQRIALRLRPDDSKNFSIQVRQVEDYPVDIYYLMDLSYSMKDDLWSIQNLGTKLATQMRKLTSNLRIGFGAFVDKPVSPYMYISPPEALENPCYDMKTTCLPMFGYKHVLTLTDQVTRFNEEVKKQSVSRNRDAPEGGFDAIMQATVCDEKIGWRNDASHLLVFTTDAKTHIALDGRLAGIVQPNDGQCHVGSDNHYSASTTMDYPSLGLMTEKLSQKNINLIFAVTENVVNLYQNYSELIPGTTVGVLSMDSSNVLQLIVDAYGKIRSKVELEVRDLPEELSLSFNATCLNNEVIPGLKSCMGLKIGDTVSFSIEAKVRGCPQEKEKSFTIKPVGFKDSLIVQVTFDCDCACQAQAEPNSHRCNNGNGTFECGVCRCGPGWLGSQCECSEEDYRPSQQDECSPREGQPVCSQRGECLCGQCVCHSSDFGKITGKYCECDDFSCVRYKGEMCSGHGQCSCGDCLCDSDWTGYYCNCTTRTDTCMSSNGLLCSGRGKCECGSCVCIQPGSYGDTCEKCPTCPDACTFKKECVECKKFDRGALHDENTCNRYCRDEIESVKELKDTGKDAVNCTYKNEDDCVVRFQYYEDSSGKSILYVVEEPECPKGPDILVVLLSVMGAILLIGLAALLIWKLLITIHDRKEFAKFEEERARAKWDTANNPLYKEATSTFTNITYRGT

human αvβ3 integrin on cells (human), sequence (P06756 31-1048, chain 1 of 2): as the sequence (P06756 31-1048, form in doubt, chain 1 of 2) above
human αvβ3 integrin on cells (human), sequence (P05106 27-788, chain 2 of 2, further chain): as the sequence (P05106 27-788, form in doubt, chain 2 of 2, further chain) above

- Kd [1]: 10 nM
- Receptors per cell (receptors per cell) [1]: 660000
- Kd [2]: 22 nM
- Receptors per cell (receptors per cell) [2]: 370000
- Kd [3]: 0.25 nM
B1: abciximab (Fab, INN chains, looked up, V domains shown)
VH: EVQLQQSGTVLARPGASVKMSCEASGYTFTNYWMHWVKQRPGQGLEWIGAIYPGNSDTSYIQKFKGKAKLTAVTSTTSVYMELSSLTNEDSAVYYCTLYDGYYVFAYWGQGTLVTVSA
VL: EIVLTQSPVTLSVTPGDSVSLSCRASRDISNNLHWFQQTSHESPRLLIKYASQSMSGIPSRFSGSGSGTDFTLSINSVETEDFGMYFCQQTNSWPYTFGGGTKLEIK
modifications: Fab 125I label
